Test results as given in patent US20070134248A1.

Target: KV4-1 Id proteins
Experiment: ELISA

KV4-1 Id proteins recognized / tested (of 41 Id proteins): 35
B1: mAb clone 12C3 (antibody, V domains shown)
VH: EVKLVESGGGLVQPGGSLSLSCAASGFTYTDYYMNWVRQPPGKALEWLALIRNKANGYTTEYSASLKGRFTISRDNSQSILYLQMNALRAEDSATYYCVRENINYYFDYWGQGTTLTVSS
VL: DIVLTQSPASLAVSLGQRATISCRASESVEYFGASLMQWYQQKSGQPPKLLIRAATNVESGVPARFSGSGSGTDFSLNIHPVEEDDIAMYFCQQSRKVPWTFGGGTKLEIKR
